Reference: patent US7122624B2, “Parathyroid hormone receptor ligands” (The United States of America as represented by the …, priority 1999, dated 2006)

Legend:
rat PTH2 receptor = target: T1, rat PTH2 receptor (Rattus norvegicus, UniProt P70555); test: cAMP accumulation in COS-7 cells transiently expressing the rat PTH2 receptor; type: cell-based
T1 construct: expressed in transfected cells; host or cells: COS-7 (transient)
Procedure: To express rat PTH2 receptor in cell culture, a rat hypothalamus cDNA library was prepared in the vector CDM7 amp as described. […] A clone was isolated from a single positive pool by colony hybridization using the same ^32P labeled probe.
(§1) Cell culture supplies were obtained from Life Technologies (Frederick, Md.) except for fetal bovine serum which was from Sigma (St. Louis, Mo.).
(§2) The constructs containing the cDNA sequences of the human PTH2 receptor and β-galactosidase have been previously described.
(§3) All peptides were purchased from either Bachem (Torrance, Calif.) or Peninsula Laboratories (Belmont, Calif.). The letters ‘b,’ ‘r’ and ‘h’ designate the peptide sequence as bovine, rat and human, respectively. […] [α-^32P]dCTP was purchased from ICN Biomedicals (Costa Mesa, Calif.). Bovine hypothalamic extract was prepared by acid extraction, gel-filtration and reverse-phase HPLC as previously described. […] Antagonist inhibitory potency was examined by measuring the concentration-dependence of rPTH(1–34)-stimulated cAMP accumulation in the presence and absence of antagonist.
(§4) Statistical comparison of two sample means was evaluated using the two-tailed Student's t-test. […] Antagonist inhibitory potency was quantified using the pA2, value, the negative logarithm of the concentration of antagonist that produces a two-fold decrease of agonist EC50. This was calculated using the following equation: pA2=((EC50/EC50′)−1)−log [antagonist]

human PTH2 receptor = target: T2, human PTH2 receptor (Homo sapiens, UniProt P49190); test: cAMP accumulation in COS-7 cells transiently expressing the human PTH2 receptor; type: cell-based; details: COS-7
T2 construct: expressed in transfected cells; host or cells: COS-7 (transient)
Description: as §1, §2, §3, §4

T1 sequence (P70555 25-546): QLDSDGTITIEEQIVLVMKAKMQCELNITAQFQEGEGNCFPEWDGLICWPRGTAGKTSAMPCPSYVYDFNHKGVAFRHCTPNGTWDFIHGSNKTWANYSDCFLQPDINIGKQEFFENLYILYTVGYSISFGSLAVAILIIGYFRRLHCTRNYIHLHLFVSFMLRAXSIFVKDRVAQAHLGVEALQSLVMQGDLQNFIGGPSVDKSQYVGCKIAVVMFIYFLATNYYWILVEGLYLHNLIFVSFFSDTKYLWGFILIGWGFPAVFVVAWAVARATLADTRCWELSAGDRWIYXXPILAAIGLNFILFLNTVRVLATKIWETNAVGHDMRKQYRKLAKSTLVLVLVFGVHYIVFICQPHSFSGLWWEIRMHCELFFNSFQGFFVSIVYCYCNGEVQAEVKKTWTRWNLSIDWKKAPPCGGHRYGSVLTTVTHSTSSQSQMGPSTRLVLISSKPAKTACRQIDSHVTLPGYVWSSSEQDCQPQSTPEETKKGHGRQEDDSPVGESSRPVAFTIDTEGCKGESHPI
T2 sequence (P49190 25-550): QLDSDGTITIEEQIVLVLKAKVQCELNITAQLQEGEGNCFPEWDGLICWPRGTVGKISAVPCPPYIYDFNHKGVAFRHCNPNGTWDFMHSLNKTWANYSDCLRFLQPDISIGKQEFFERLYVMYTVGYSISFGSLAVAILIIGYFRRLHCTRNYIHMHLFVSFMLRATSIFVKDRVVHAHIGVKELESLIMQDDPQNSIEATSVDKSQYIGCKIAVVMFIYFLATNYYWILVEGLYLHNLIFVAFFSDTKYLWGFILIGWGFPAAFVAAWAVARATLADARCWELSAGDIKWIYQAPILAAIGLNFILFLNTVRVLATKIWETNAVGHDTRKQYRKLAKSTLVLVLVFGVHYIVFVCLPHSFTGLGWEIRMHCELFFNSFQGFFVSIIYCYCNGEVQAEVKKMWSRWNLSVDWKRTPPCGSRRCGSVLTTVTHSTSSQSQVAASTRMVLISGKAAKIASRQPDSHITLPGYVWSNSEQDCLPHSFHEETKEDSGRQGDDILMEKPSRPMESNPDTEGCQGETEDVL

- EC50 (rat PTH2 receptor; activation of adenylyl cyclase, COS-7, figures in brackets): 19 nM
- −logEC50 (rat PTH2 receptor; activation of adenylyl cyclase, COS-7, mean ± s.e.m. of three or four experiments): 7.72 ± 0.12
- Emax, % of response of rPTH2r to 3 μM rPTH(1-34) (rat PTH2 receptor; intrinsic activity, COS-7): 97 ± 5%
- Emax, % of response of hPTH2r to 1 μM hPTH(1-34) (rat PTH2 receptor; rat receptor response relative to human PTH2 receptor response measured in parallel): 28 ± 4%
- EC50 (human PTH2 receptor; activation of adenylyl cyclase, figures in brackets): 0.58 nM
- −logEC50 (human PTH2 receptor; activation of adenylyl cyclase, mean ± s.e.m. of three or four experiments): 9.24 ± 0.05
- Emax, % of response to 1 μM hPTH(1-34) (human PTH2 receptor; intrinsic activity): 98 ± 4%
B1: rPTH(1-84): rat full-length parathyroid hormone (1–84), purchased (peptide)
peptide: AVSEIQLMHNLGKHLASVERMQWLRKKLQDVHNFVSLGVQMAAREGSYQRPTKKEENVLVDGNSKSLGEGDKADVDVLVKAKSQ
